# Read-outs that look alike come from different tables or passages of the source.
# T1: human B7H4 on the cell surface (human, UniProt Q7Z7D3 25-282)
# T1 construct: whole, on cells; also called CHOK1/hu B7H4; B7H4 on SK-BR-3
# T1 sequence (looked up): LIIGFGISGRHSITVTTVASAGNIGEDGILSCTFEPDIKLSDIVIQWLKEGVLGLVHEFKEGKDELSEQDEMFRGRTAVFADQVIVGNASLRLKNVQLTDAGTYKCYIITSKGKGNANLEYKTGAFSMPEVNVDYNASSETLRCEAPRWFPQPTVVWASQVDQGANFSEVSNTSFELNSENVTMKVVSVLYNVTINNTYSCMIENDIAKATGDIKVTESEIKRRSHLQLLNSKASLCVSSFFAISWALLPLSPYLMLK
# T2: Human B7H4 (his tag), Sino Biological #10738-H08H (human, UniProt Q7Z7D3 25-259)
# T2 construct: extracellular domain; Bought protein; also called hB7H4-ECD-his
# T2 sequence (looked up): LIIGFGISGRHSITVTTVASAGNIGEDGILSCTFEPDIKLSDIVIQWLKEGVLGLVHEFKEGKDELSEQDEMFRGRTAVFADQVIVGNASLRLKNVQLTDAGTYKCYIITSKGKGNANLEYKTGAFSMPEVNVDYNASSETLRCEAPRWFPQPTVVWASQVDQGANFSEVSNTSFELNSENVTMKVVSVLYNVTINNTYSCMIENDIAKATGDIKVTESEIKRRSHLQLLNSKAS
# T3: B7-H4 (Acro Biosystems, #B74-H82E2) (UniProt Q7Z7D3 29-258)
# T3 construct: Bought protein; also called B7-H4 captured on SA sensor
# T3 sequence (looked up): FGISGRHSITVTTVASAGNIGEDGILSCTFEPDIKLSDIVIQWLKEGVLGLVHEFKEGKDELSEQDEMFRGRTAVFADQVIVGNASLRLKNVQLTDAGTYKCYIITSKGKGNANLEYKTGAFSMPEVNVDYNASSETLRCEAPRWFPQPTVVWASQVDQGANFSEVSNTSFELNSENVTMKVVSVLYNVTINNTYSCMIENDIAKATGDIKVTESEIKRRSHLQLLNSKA
# Assays:
# CD3 on human T cells [1] = target: T4, CD3 on human T cells (human, UniProt P07766 23-207; P04234 22-171; P09693 23-182); test: FACS on human T cells
# Protocol: (§1) SK-BR-3 cells were digested. T cells were isolated using the human T cell isolation kit (Miltenyi, #130-096-535) as described in the method of the instruction, and resuspended with PBS containing 2% BSA. The cell density was adjusted to 1×10⁶ cells/mL. The cells were seeded in a 96-well V-bottom plate (Corning, #3894) at 100 μL/well, followed by the addition of test antibodies diluted in a 3-fold gradient at a concentration that was 2 times the final concentration, each at 100 μL/well. The cells were incubated at 4° C. for 2 h away from light. Thereafter, the cells in each well were rinsed twice with 100 μL of pre-cooled PBS containing 2% BSA, and centrifuged at 500 g at 4° C. for 5 min, and then the supernatant was discarded. Then each well was added with 100 μL of fluorescent secondary antibody (Alexa Fluor 488-conjugated AffiniPure Goat Anti-Human IgG, Fcγ Fragment Specific, Jackson, #109-545-098, diluted in a 1:500 ratio), and the plate was incubated away from light at 4° C. for 1 h. The cells in each well were washed twice with 100 μL of pre-cooled PBS containing 2% BSA, and centrifuged at 500 g at 4° C. for 5 minutes, and then the supernatant was discarded. Finally, the cells in each well were resuspended with 200 μL of pre-cooled PBS containing 2% BSA, and the fluorescence signal values were read using an ACEA Novocyte3000 flow cytometer.
# CD3 on human T cells [2] = target: T4, CD3 on human T cells; test: FACS on human T cells; remark: listed apart in the source
# Protocol: as §1
# CD3 on human T cells [3] = target: T4, CD3 on human T cells; test: FACS on human T cells; remark: listed apart in the source
# Protocol: as §1
# CD3 on human T cells [4] = target: T4, CD3 on human T cells; test: FACS on human T cells; remark: listed apart in the source
# Protocol: as §1
# [5] = target: T1, human B7H4 on the cell surface; test: FACS on SK-BR-3 cells, expression supernatant at 1 X and 10X
# [6] = target: T2, Human B7H4 (his tag), Sino Biological …; test: SPR (Biacore T200), antibody captured on Protein A, B7H4-his as analyte, 1:1 fit
# Protocol: 10×HBS-EP+ (GE Healthcare, #BR-1006-69) was diluted 10-fold and then taken as an experimental buffer. The flow rate was set at 10 μL/min, and Protein A was coupled to 4 channels of a chip CM5 (GE Healthcare, #BR-1005-30) through the following procedures: 1) the injection time was set to 800 s, and a fresh mixture of 50 mM NHS and 200 mM EDC was injected into the 4 channels in a volume ratio of 1:1; 2) Protein A was diluted to 20 μg/mL with sodium acetate (GE Healthcare, #BR-1003-50) at pH 4.5 and injected into each channel for 800 s; and 3) 1 M ethanolamine at pH 8.5 was injected for 800 s to block the remaining active carboxyl groups on the chip surface. After blocking, the instrument was equilibrated with 1×HBS-EP+buffer for 2 hours, and the final coupling level of Protein A was about 2000 RU.
# A multi-cycle kinetics mode was set at Biacore T200, and each cycle included antibody capture, analyte binding and chip regeneration. […] Finally, 10 mM glycine-hydrochloric acid at pH 1.5 (GE Healthcare, #BR-1003-54) was injected at the same flow rate for 30 s to regenerate the chip.
# The experimental results were analyzed using the Biacore T200 analysis software 2.0, with channel 1 subtracted as a reference channel and a 1:1 kinetic fitting model selected as an analysis model.
# [7] = target: T3, B7-H4 (Acro Biosystems, #B74-H82E2); test: BLI epitope competition; 1st Ab = row; competitor (2nd Ab) PR002418; inhibition of the 2nd Ab signal
# Protocol: (§2) Step one, acquisition of 100% signal of antibodies: B7-H4 (Acro Biosystems, #B74-H82E2-200 μg) was captured at a capture height of 0.25 nm using an SA sensor (Fortebio, #18-5019). The sensor was equilibrated in a buffer for 120 s and then immersed in each antibody diluted to 100 nM for 240 s, and the final signal of the antibody binding to B7-H4 was recorded as the 100% signal of the antibody. Step two, epitope competition experiment: B7-H4 was captured using an SA sensor at a capture height of 0.25 nm. The sensor was immersed in a primary antibody (at a concentration of 100 nM) for 240 s, and then the SA sensor was immersed in a mixture of the primary and secondary antibodies (both at a final concentration of 100 nM) for 240 s, and the difference in signals after immersion of the sensor in the antibody mixture was recorded as the signal of the antibody as the secondary antibody. The inhibition rate was calculated according to the following formula: […]
# [8] = target: T3, B7-H4 (Acro Biosystems, #B74-H82E2); test: BLI epitope competition; 1st Ab = row; competitor (2nd Ab) PR002421; inhibition of the 2nd Ab signal
# Protocol: as §2
# [9] = target: T3, B7-H4 (Acro Biosystems, #B74-H82E2); test: BLI epitope competition; 1st Ab = row; competitor (2nd Ab) Control antibody 1; inhibition of the 2nd Ab signal
# Protocol: as §2
# [10] = target: T3, B7-H4 (Acro Biosystems, #B74-H82E2); test: BLI epitope competition; 1st Ab = row; competitor (2nd Ab) Control antibody 2; inhibition of the 2nd Ab signal
# Protocol: as §2
# [11] = target: T1, human B7H4 on the cell surface; test: FACS on SK-BR-3 cells
# Protocol: as §1
# CD3 on human T cells [12] = target: T4, CD3 on human T cells; test: FACS on human T cells; EC50 printed as n.d., curve still rising at 100 nM
# Protocol: as §1
# [13] = target: T1, human B7H4 on the cell surface; test: FACS on SK-BR-3 cells; the printed number lies below the lowest concentration shown (0.03 nM)
# Protocol: as §1
# T4 sequence (P07766 23-207 limits assumed, chain 1 of 3): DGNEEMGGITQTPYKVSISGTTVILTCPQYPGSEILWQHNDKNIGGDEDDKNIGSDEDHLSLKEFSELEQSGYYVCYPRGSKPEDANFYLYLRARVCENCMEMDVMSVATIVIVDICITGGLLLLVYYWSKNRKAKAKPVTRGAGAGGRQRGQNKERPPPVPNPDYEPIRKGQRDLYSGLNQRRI
# T4 sequence (P04234 22-171 limits assumed, chain 2 of 3): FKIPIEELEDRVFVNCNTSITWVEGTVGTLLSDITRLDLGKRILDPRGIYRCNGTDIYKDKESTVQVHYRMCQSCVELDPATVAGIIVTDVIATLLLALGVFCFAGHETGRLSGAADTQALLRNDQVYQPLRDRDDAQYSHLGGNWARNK
# T4 sequence (P09693 23-182 limits assumed, chain 3 of 3): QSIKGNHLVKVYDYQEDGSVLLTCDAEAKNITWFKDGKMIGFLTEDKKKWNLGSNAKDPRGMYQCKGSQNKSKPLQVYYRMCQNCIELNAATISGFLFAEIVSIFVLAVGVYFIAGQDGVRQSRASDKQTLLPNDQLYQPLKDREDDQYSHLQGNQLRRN
binder,measurement,setting,value
"PR001924 (antibody, V domains shown, also called PR001924 (αCD3 IgG)) VH: EVQLLESGGGLVQPGGSLRLSCAASGFTFSTYAMNWVRQAPGKGLEWVSRIRSKYNNYATYYADSVKDRFTISRDDSKSTLYLQMNSLRAEDTAVYYCVRHGNFGNSYVSWFAYWGQGTLVTVSS VL: QAVVTQEPSLTVSPGGTVTLTCRSSTGAVTTSNYANWVQQKPGQAPRGLIGGTNKRAPWTPARFSGSLLGDKAALTLLGAQPEDEAEYFCALWYSNLWVFGGGTKLTVLG",EC50,CD3 on human T cells [1],7.5 nM
same,EC50,CD3 on human T cells [2],7.5 nM
same,EC50,CD3 on human T cells [3],6.1 nM
same,EC50,CD3 on human T cells [4],7.5 nM
"PR002405 (antibody, human IgG1, kappa, V domains shown, variant of PR001476 (H: D54E); also called PR002405 supernatant) VH: QVQLVESGGGVVQPGRSLRLSCAASGFTFRSFGMHWVRQAPGKGLEWVAVISYEGSNEYYADSVKGRFIISRDNSKDTLYLQMNSLRAGDTAVYYCAKGGGLRWYFAYWGQGTLVTVSS VL: EIVMTQSPATLSVSPGERATLSCRASQSISSNLGWYQQKPGQAPRLLIYGASTRATGIPARFSGSGSGTEFTLTISSLQSEDFAVYYCQQYQSWPPLTFGGGTKVEIKR",binding result,[5],binds
"Control antibody 2 (PR002962) (antibody, human IgG1, kappa, V domains shown, Anti-B7H4 IgG1 control antibody from WO2019040780A1 (FivePrime), Fc mutated on the basis of PR002961 to enhance ADCC) VH: QLQLQESGPGLVKPSETLSLTCTVSGGSIKSGSYYWGWIRQPPGKGLEWIGNIYYSGSTYYNPSLRSRVTISVDTSKNQFSLKLSSVTAADTAVYYCAREGSYPNQFDPWGQGTLVTVSS VL: EIVMTQSPATLSVSPGERATLSCRASQSVSSNLAWYQQKPGQAPRLLIYGASTRATGIPARFSGSGSGTEFTLTISSLQSEDFAVYYCQQYHSFPFTFGGGTKVEIKR",Kd,[6],4.45 nM
same,koff,[6],0.00116 s⁻¹
same,kon,[6],261000 M⁻¹ s⁻¹
same,Competitive inhibition rate (%),[7],4.49%
same,Competitive inhibition rate (%),[8],6.32%
same,Competitive inhibition rate (%),[9],96.6%
same,Competitive inhibition rate (%),[10],95.8%
"PR002994 (bispecific antibody, human IgG1, kappa, lambda, L234A L235A, B7H4 x CD3, 2+1 asymmetric structure (structure 6): CD3 end from PR001924, two B7H4 Fabs from PR001476) chain 1: EVQLLESGGGLVQPGGSLRLSCAASGFTFSTYAMNWVRQAPGKGLEWVSRIRSKYNNYATYYADSVKDRFTISRDDSKSTLYLQMNSLRAEDTAVYYCVRHGNFGNSYVSWFAYWGQGTLVTVSSASTKGPSVFPLAPSSKSTSGGTAALGCLVKDYFPEPVTVSWNSGALTSGVHTFPAVLQSSGLYSLSSVVTVPSSSLGTQTYICNVNHKPSNTKVDKKVEPKSC chain 2: not shown heavy: not shown light: not shown",Maximum MFI,[11],183000
same,Maximum MFI,CD3 on human T cells [12],73000
same,EC50,[13],0.006 nM
